System: MS2 coat protein
Assay: apparent KD of MS2 coat protein; higher = weaker reporter binding
Settings: Eterna round: R107
Method: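 RNA-MaP round R107: designed RNA switches with theophylline, tryptophan, arginine or FMN aptamers are transcribed on-chip within common flanks. They are titrated with SNAP-549-labelled MS2 coat protein in RNA-MaP buffer (100 mM Tris pH 7.5, 80 mM KCl, 4 mM MgCl2), without ligand or with the indicated ligand. Median apparent KD per design.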

[1] = input ligand: theophylline 20 uM
[2] = input ligand: theophylline 2 mM
[3] = input ligand: tryptophan 2.4 mM

| Sequence | apparent KD of MS2 coat protein (input ligand: arginine 13.2 mM) [nM] | apparent KD of MS2 coat protein [1] [nM] | apparent KD of MS2 coat protein [2] [nM] | apparent KD of MS2 coat protein [3] [nM] | apparent KD of MS2 coat protein (input ligand: none) [nM] |
| --- | --- | --- | --- | --- | --- |
| AAUGUAUUCCACAUGAGGAUCACCCAUGUGCGAGGACCGGUACGGCCGCCACUCGGUGUUGGGAUCAGUUCUGAAUACAUUAAUG [XTryp A #24] | 19.1 | 19.2 | 20.5 | – | – |
| ACAAGUCCUCAUGAUACCAGCGAUGAGACAAAGUCUCAACAUGAGGAUCACCCAUGUACUCGCCCUUGGCAGCAUACGGUUUUUG [Onedxequla] | 139 | 373 | – | 573 | – |
| ACACGAAGCUGAAGGAGCGUGGUAUAAUUUUUUACAUGAGGAUCACCCAUGUCUCAUUUUUCACAGGUAGGUCGCAGAUGCGUGA [JR_SSArginiB_Sub015] | 54.5 | 81.6 | 117 | 78.7 | 71.5 |
| ACAUGAGGAUCACCCAUGUAAGAUGCAGAAGGAGCGGGAAAUAACCCAGGUAGGUCGCUGCGGUUUGGAUUAUUGUGUUCGUGAA [#08 Exclusion - Arginine A] | 11.6 | 18.8 | 13.8 | 12.5 | 12.1 |
| ACAUGAGGAUCACCCAUGUACAUCACCCGACGAGGACCGGUACGGCCGCCACUCGGGUAUAUAUUUACAUCGGGUGAUUUUACGU [#23 Tryptophan A Same State] | 21.9 | 81.2 | 115 | – | – |
| ACAUGAGGAUCACCCAUGUACAUGAGGGAAGGAGCGGUACAUGAGCCAGGUAGGUCGCCCAACAGCAAAUGGCAUGUACAACGGA [hhnmullin] | 33.8 | 74.3 | 60.5 | 63.5 | 78.4 |
| ACAUGAGGAUCACCCAUGUAGAAAGAUCCUCGAGGACCGGUACGGCCGCCACUCGAGUGGCAGUGUGUGCAGAAAAUGCGCGCGC | 28.6 | 92.2 | 81.4 | 14.2 | 50.9 |
| ACAUGAGGAUCACCCAUGUCACGGCACGAUACCAGCUGAUGCGGUGGCCCUUGGCAGCGUGACGUUUGGUCCCGCGGAUGACACG [qsmullin] | 86.4 | 280 | – | 240 | – |
| ACAUGAGGAUCACCCAUGUCUGCCACUGAUACCAGCGGAUGCCAACGCCCUUGGCAGCAGAACAUGAGGAUCACCCAUGUAGGCA [Same State Theophylline A GF25] | 99.5 | 303 | – | 297 | – |
| ACAUGAGGAUCACCCAUGUGAUGGCACGAUACCAGCUGAUCCCGUGGCCCUUGGCAGCGUCCGGUGUGGUCCGGCGGGUGGGACG [qqwmullin] | 30.1 | 97.8 | 25.9 | 21.2 | 21.5 |
| ACAUGAGGAUCACCCAUGUGCCGUCUUGAUACCAGACCCGAAGUAGUCCCUUGGCAGCAACUACGUGACGGUCGCCCAUGUGUAG [rremullin] | 14 | 20.4 | – | 14.7 | – |
| ACAUGAGGAUCACCCAUGUGCCGUCUUGAUACCAGACCCGAAGUAGUCCCUUGGCAGCAACUACGUGAGGGUCGCCCAUGUGUAG [5kullin] | 16.1 | 22.2 | 16.7 | 13.7 | 14.5 |
| ACAUGAGGAUCACCCAUGUGGCGUCUUGAUACCAGACCCGCACUAGUCCCUUGGCAGCAACUACGUGAGGGUCGCCCAUGUGUAG [zxdullin] | 32.4 | 50.8 | – | 34.4 | – |
| ACAUGAGGAUCACCCAUGUUUGUUGUUCCUCGAGGACCGGUACGGCCGCCACUCGAACGAGUGGCGCGCGAGUGCGCACUCGCGC [aOa] | 12.7 | 18 | 13.4 | 11.7 | 11.9 |
| ACAUUUAACUGAAGGAGCGUGAUAAACAUGAGGAUCACCCAUGUACCAAAGAUUUUCAGUUCACAGGUAGGUCGCAGACUAAUGA [JR_ExcArginiB_Sub016] | 10.6 | 13.8 | 11.5 | 10.8 | 11.1 |
| ACGUAAUGCAGAAGGAGCGUCUGAUUUUAACAUGAGGAUCACCCAUGUAAUAUUUAUGGUAGACAGGUAGGUCGCUGAAGUACGA [JR_ExcArginiB_Sub002] | 14.8 | 16.8 | 15.2 | 14.8 | – |
| ACGUAGAAGUCGGCCGCCACUGAUUUCAUGUUCAACAUGAGGAUCACCCAUGUACCUUAUGUUAACAGGACCGGGACGUAUACGA [JR_SSTryptoB_Sub001] | 228 | 303 | 442 | – | – |
| ACGUCAACCCUUAUGUUGAUGCAAGACGAUACCAGCCUGGAUACAGGCCCUUGGCAGCGUCAACAUGAGGAUCACCCAUGUAAUA [(T)''-(MT)'-(Theo)-(Ms2)] | 32.2 | 261 | – | 45.3 | – |
| ACGUUCGCGGUAUCCAACCGGUUGUACAAACGAGGACCGGUACGGCCGCCACUCGUGAUUGUACAUGAGGAUCACCCAUGUGGCA [theeternabot_exclusion_MS2_Trp_A_28] | 18.7 | 34.1 | 28.1 | – | – |

From the supplement of paper PMC9170038
